The values that follow come from patent publication US20220064302A1 (GIGAGEN, published 2022).

Numbering of substitutions follows the chain as printed. Some results are limits rather than exact numbers.

Broadly, the Kd is a measure of binding affinity in units of concentration. The koff is a measure of how fast the partners let go of each other. The term kon denotes the second-order rate constant of association. Read a high kon as fast association.

The labels stand for the following.
B1: A27 (antibody, V domains shown)
VH: QVQLVQSGAELVRPGTSVKLSCRASGYTFTTYWMHWVKQRPGQGLEWIGVIDPSDSYTYYNQKFKGKATLTVDTSSSTAYMQLSSLTSEDSAVYFCARNWDYWGQGTTLTVSS
VL: AIQLTQSPSSLSASVGDRVTITCRASQGISSALAWYQQKPGKAPKLLIYDASSLESGVPSRFSGSGSGTDFTLTISSLQPEDFATYYCQQFNDYALTFGGGTKVEIK
notes: Tested as full-length mAb expressed in CHO cells; also called antibody 27; L27H27
B2: A12 (antibody, V domains shown)
VH: QVQLVESGGGVVQPGRSLRLSCAASGFTFSSYGMHWVRQAPGKGLEWVAVIWYDGSNKYYADSVKGRFTISRDNSKNTLYLQMNSLRAEDSAVYYCVCNPFDYWGQGTLVTVSS
VL: DIQMTQSPSSLSASVGDRVTVTCRSSQGIAHYLAWYQQKPGKVPKVLLYAASTLQSGVPSRFSGSGSGTDFTLTISSLQPEDVATYYCQKYNSAPYTFGQGTKLEIK
notes: Tested as full-length mAb expressed in CHO cells; also called antibody A12; L12H12
B3: A26 (antibody, V domains shown)
VH: B2 VH with S31D, A61T, N84S, S91A, V97A, C98V
VL: B2 VL with V21I, T22S, S25A, A30S, H31N, L48I, A50G
notes: Tested as full-length mAb expressed in CHO cells; also called antibody 26; L26H26
B4: A23 (antibody, V domains shown)
VH: QVQLVESGGGVVQPGRSLRLSCVASGFTFSNYGMHWVRQAPGKGLEWVAIIWYDGSIKYYADSVKGRFTISRDNSKNTLHLQMNSLRAEDTAVYYCARWGIYFDYWGQGTLVTVSS
VL: EIVMTQSPATLSVSPGERATLSCRASQSVSSNLAWYQQKPGQAPRLLIYGASTRATGIPARFSGSGSGTEFTLTISSLQSEDFAVYYCQQYHNWPLTFGGGTKVEIK
notes: Tested as full-length mAb expressed in CHO cells; also called antibody 23; L23H23
B5: A24 (antibody, V domains shown)
VH: QVQLVESGGGVVQPGRSLRLSCAASGFTFSDSGMHWVRQAPGKGLEWVAVIWYDGSKKYYVDSVKGRFTISRDNSKNTLYLQMNSLRAEDTAVYYCATEGDYWGQGTLVTVSS
VL: B4 VL with S14F, A34G, I48M, A55V, H92N, N93T, L96R, G100Q
notes: Tested as full-length mAb expressed in CHO cells; also called antibody 24; L24H24
B6: A28 (antibody, V domains shown)
VH: QVQLVESGGGLVKPGGSLKLSCAASGFTFSDYGMHWVRQAPEKGLEWVAYISSGSFAIYYADTVRGRFTISRDSAKNTLFLQMTSLRSEDTAMYYCARRGPYPYYYSMDYWGQGTSVTVSS
VL: AIQMTQSPSSLSASVGDRVTITCRASQGISSALAWYQQKPGKAPKLLIYAASTLQSGVPSRFSGSGSGTDFTLTISSLQPEDFATYYCLQDYNYPWTFGQGTKVEIK
notes: Tested as full-length mAb expressed in CHO cells; also called antibody 28; L28H28
B7: A16 (antibody, V domains shown)
VH: QVQLVESGGGVVQPGRSLTLSCAASGFTFSNYGMYWVRQAPGKGLEWVAVIWYDGSNKYYADSVKGRFTISRDNSKNTLYLQMNSLRAEDTAVYYCAGGGSYSGDYWGQGTLVTVSS
VL: DIQMTQSPSSLSASVGDRVTITCRTSQDIRNDLGWYQQKPGKAPKRLIYAVSSLQSGVPSRFSGSGSGTEFTFTISSLQPEDFATYYCLQYNTYPFTFGPGTTVDIK
notes: Tested as full-length mAb expressed in CHO cells; also called antibody 16; L16H16
B8: A17 (antibody, V domains shown)
VH: B7 VH with T19R, N31S, Y35H, K58Q, Y80F, Y95F, S101N, S103Y, Y106F
VL: B7 VL with T25A, D28G, V51A, F73L, N92I, T93S, F96W, P100Q, T103K, D105E
notes: Tested as full-length mAb expressed in CHO cells; also called antibody 17; L17H17
B9: A19 (antibody, V domains shown)
VH: QVQLVESGGGVVQPGRSLRLSCAASGFTFSNYGMYWVRQAPGKGLEWVAVIWYDGSNKYYADSVKGRFTISRDNSKNTLYLQMNSLRAEDTAVYYCAGGGDILTGDYWGQGTLVTVSS
VL: DIQMTQSPSSLSASVGDRVTITCRASQGIRNDLGWYQQKPGKAPKRLIYAASSLQSGVPSRFSGSGSGTEFTLTISSLQPEDFATYYCLQYKSYLYTFGQGTKLEIK
notes: Tested as full-length mAb expressed in CHO cells; also called antibody 19; L19H19
B10: A25 (antibody, V domains shown)
VH: QVQLVESGGGVVQPGRSLRLSCAASGFTFSSYGMHWVRQAPGKGLEWVGVIWYDGSIKYYADSVKGRFTISRDNSMNTLNLQMNSLRAEDTAVYYCAGDILTGSFDYWGQGTLVTVSS
VL: EIVLTQSPATLSLSPGERATLSCRASQSVSSYLAWYQQKPGQAPRLLIYDASNRATGIPARFSGSGSGTDFTLTISSLEPEDFAVYYCQQRNNWPYTFGQGTKLEIK
notes: Tested as full-length mAb expressed in CHO cells; also called antibody 25; L25H25
B11: A18 (antibody, V domains shown)
VH: QVQLVQSGTEVKKPGASVKVSCQASGYTFTSYDISWVRRAPGQGLEWMGWISAYNGNTNYAQKLQGRVTLTTDTSTSTAYMELRSLRSDDTAVYYCARRYYDILTEGGYYYVLDVWGQGTTVTVSS
VL: AIRMTQSPSSFSASTGDRVTITCRASQGISSYLAWYQQKPGKAPTLLIYAASTLQSGVPSRFSGSGSGTDFTLTISCLQSEDFATYYCQQYYSDPPTFGQGTKVEIK
notes: Tested as full-length mAb expressed in CHO cells; also called antibody 18; L18H18
B12: A20 (antibody, V domains shown)
VH: EVQLVESGGGLVQPGGSLRLSCAASGFTFSFYDMHWVRQAKGKGLEWVSAIGTAGDTYYPGSVKGRFTISRENAKNSLYLQMNSLRAGDTAVYYCARGYCSTTNCFADYFDYWGQGTLVTVSS
VL: DIQLTQSPSFLSASVGDRVTITCRASQGISNYLAWYQQKPGKAPKLLIYAASTLQSGVPSRFSGSGSGTEFTLTISSLQPEDFATYYCHQLNSFPLTFGGGTKVEIK
notes: Tested as full-length mAb expressed in CHO cells; also called antibody 20; L20H20
B13: A22 (antibody, V domains shown)
VH: QVQLVESGGGVVQPGRSLRLSCAASGFTFSNYGMHWVRQAPGKGLEWVAVIWYDGSNKYYADSVKGRFTISRDNSKNTLYLQMNSLRAEDTAVYYCARLYYYDSSGYYPDAFDIWGQGTMVTVSS
VL: B9 VL with Y91H, K92N, L95P, Y96F, Q100P, L104V
notes: Tested as full-length mAb expressed in CHO cells; also called antibody 22; L22H22
B14: A21 (antibody, V domains shown)
VH: QVQLVQSGAEVKKPGASVKVSCKASGYTFTSYYMHWVRQAPGQGLEWMGIINPSGSSTSYAQKFQGRVTMTRDTSTSTVYMELSSLRSEDTAVYYCARYGVWGSYRSLDYWGQGTLVTVSS
VL: B6 VL with S30R, S31N, A32E, A34G, Y49C, T53S, N93I, W96Y, V104L
notes: Tested as full-length mAb expressed in CHO cells; also called antibody 21; L21H21
B15: A13 (antibody, V domains shown)
VH: QVQLVQSGAEVKKPGASVKVSCKASGYTFTTYGISWVRQAPGQGLEWMGWISAHNGNTNYAQKFQGRVTMTTDTSTSTAYMELRSLRSDDTAVYYCVRDGAVADYYYGMDVWGQGTTVTVSS
VL: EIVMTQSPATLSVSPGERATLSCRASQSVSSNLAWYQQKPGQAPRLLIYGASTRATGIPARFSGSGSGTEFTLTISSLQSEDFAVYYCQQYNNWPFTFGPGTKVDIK
notes: Tested as full-length mAb expressed in CHO cells; also called antibody A13; L13H13
B16: A15 (antibody, V domains shown)
VH: QVQLQESGPGLVKPSETLSLTCTVSGGSISSYYWSWIRQPPGKGLEWIGYIYYSGSTNYNPSLKSRVTISEDTSKNQFSLKLSSVTAADTAVYYCARDEGATFFDYWGQGTLVTVSS
VL: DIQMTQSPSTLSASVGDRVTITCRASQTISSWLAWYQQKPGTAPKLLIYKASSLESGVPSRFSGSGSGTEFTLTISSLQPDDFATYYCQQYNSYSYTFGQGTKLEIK
notes: Tested as full-length mAb expressed in CHO cells; also called antibody 15; L15H15

Chain of PD-1 expressed on cells (Q15116 25-288 limits assumed): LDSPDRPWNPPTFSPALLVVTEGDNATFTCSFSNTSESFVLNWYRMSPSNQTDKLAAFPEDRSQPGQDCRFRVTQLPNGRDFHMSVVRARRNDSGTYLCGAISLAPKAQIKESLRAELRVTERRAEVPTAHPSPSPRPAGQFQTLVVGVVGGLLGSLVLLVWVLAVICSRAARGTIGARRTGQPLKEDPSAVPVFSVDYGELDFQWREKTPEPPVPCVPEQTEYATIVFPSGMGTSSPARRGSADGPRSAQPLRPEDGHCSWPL

The first experiment concerns the target PD-1 expressed on cells (human, UniProt Q15116 25-288). The experiment is described as follows: cell-based or functional assay.
Take B1: the “PD-1/PD-L1 blockage (IC50, µg/ml)” value worked out at 0.528 µg/mL.

In the case of B2, the “PD-1/PD-L1 blockage (IC50, µg/ml)” value came to 3.16 µg/mL.

B3: the “PD-1/PD-L1 blockage (IC50, µg/ml)” value was 0.641 µg/mL.

Turning to B4, the “PD-1/PD-L1 blockage (IC50, µg/ml)” value was determined as 0.116 µg/mL.

Turning to B5, the “PD-1/PD-L1 blockage (IC50, µg/ml)” value was 0.266 µg/mL.

Turning to B6, the “PD-1/PD-L1 blockage (IC50, µg/ml)” value was found to be 0.542 µg/mL.

As to B7, the “PD-1/PD-L1 blockage (IC50, µg/ml)” value was 0.556 µg/mL.

For B8, the “PD-1/PD-L1 blockage (IC50, µg/ml)” value stood at 0.533 µg/mL.

Regarding B9, the “PD-1/PD-L1 blockage (IC50, µg/ml)” value was greater than 3.16 µg/mL.

The target of another experiment is T1, human PD-1 (soluble PD-1 protein, R&D Systems) (human, UniProt Q15116 25-170, limits assumed).
T1 construct: the kinetics paragraphs say only 'PD-1' / 'antigen'; also called hPD-1; soluble PD-1 immunogen
T1 sequence (Q15116 25-170 limits assumed): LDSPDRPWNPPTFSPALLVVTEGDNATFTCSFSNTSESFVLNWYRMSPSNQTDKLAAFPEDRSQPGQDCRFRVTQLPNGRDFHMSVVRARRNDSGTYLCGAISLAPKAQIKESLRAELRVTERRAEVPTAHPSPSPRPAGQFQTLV
The experiment is described as follows: BLI, mAb on AHC biosensor, PD-1 as analyte. The procedure:
The binding specificity and affinity of each full-length antibody towards PD-1 were determined using BLI and/or SPR. […] Anti-cyno PD-1 affinity was measured using BLI.
(§1) For BLI, antibodies were loaded onto an Anti-Human IgG Fc (AHC) biosensor using the Octet Red96 system (ForteBio). Loaded biosensors were dipped into antigen dilutions beginning at 300 nM, with 6 serial dilutions at 1:3. Kinetic analysis was performed using a 1:1 binding model and global fitting.
Background: Biolayer interferometry detects binding as a change in optical thickness at a sensor tip.
B10 had a Kd of 792 nM.

Molecule B1 registered a dissociation constant (Kd) of 13.8 nM.

Consider B11, for which binding was characterised by a dissociation constant (Kd) of 18.4 nM.

Turning to B2, binding was characterised by a dissociation constant (Kd) of 5.1 nM.

With B3, binding was put at a Kd of 6 nM.

B4 had a Kd of 83.8 nM.

Regarding B5, the affinity, expressed as Kd, was 8.5 nM.

For the molecule B6, the Kd is 23.8 nM.

In turn, B12 displayed a Kd of 148 nM.

As to B7, the Kd stood at 86 nM.

B13 had a dissociation constant Kd of 412 nM.

For the molecule B8, binding was put at a Kd of 326 nM.

B9 displayed a Kd of 57.1 nM.

On to B14, for which the affinity, expressed as Kd, was 13 nM.

Take B15: binding was characterised by a dissociation constant (Kd) of 86.7 nM.

B16 showed a Kd of 8.3 nM.

In another experiment the target is T1, human PD-1 (soluble PD-1 protein, R&D …). The experiment is described as follows: BLI (ForteBio), mAb on AHC biosensor, PD-1 as analyte. The procedure:
as §1
In the case of B10, the Kd is 792 nM, the koff was found to be 0.0579 s⁻¹ and the kon is 73100 M⁻¹ s⁻¹.

In turn, B1 returned a Kd of 13.8 nM, a koff of 0.000972 s⁻¹ and a kon of 70400 M⁻¹ s⁻¹.

The molecule B11 yielded a Kd of 18.4 nM, a koff of 0.00228 s⁻¹ and a kon of 124000 M⁻¹ s⁻¹.

The molecule B2 registered a Kd of 5.05 nM, a koff of 0.000516 s⁻¹ and a kon of 102000 M⁻¹ s⁻¹.

In turn, B3 had a Kd of 5.98 nM, a koff of 0.00104 s⁻¹ and a kon of 174000 M⁻¹ s⁻¹.

In the case of B4, the affinity, expressed as Kd, was 83.8 nM; the koff was found to be 0.00184 s⁻¹; the kon stood at 22000 M⁻¹ s⁻¹.

Molecule B5 returned a Kd of 8.5 nM, an off-rate (koff) of 0.00185 s⁻¹ and a kon of 217000 M⁻¹ s⁻¹.

The molecule B6 showed a Kd of 23.8 nM, a koff of 0.00418 s⁻¹ and a kon of 176000 M⁻¹ s⁻¹.

B12 showed a Kd of 148 nM, a koff of 0.00191 s⁻¹ and a kon of 13000 M⁻¹ s⁻¹.

For B7, the Kd came to 86 nM, the koff was 0.00655 s⁻¹ and the kon came out at 76100 M⁻¹ s⁻¹.

For B13, the Kd was 412 nM, the koff is 0.00667 s⁻¹ and the kon was 16200 M⁻¹ s⁻¹.

B8: the Kd stood at 326 nM, the koff amounted to 0.0079 s⁻¹ and the kon is 24200 M⁻¹ s⁻¹.

In turn, B9 registered a Kd of 57.1 nM, a koff of 0.00107 s⁻¹ and a kon of 18700 M⁻¹ s⁻¹.

As to B14, the Kd came out at 13 nM, the koff was found to be 0.00142 s⁻¹ and the kon worked out at 110000 M⁻¹ s⁻¹.

Molecule B15 gave a Kd of 86.7 nM, a koff of 0.00294 s⁻¹ and an association rate constant (kon) of 33900 M⁻¹ s⁻¹.

For the molecule B16, the Kd came out at 8.32 nM, the koff was 0.00195 s⁻¹ and the kon was determined as 235000 M⁻¹ s⁻¹.
